Experimental findings from patent US10864252B2, “Anti-SSX-2 T cell receptors and related materials and methods of use” (The United States of America, as represented by the …, priority 2010, dated 2020) are described below.

Format in all cases: cell-based
For one test, the system named is 293-A2. As to the kind of experiment: IFN-γ release, co-culture with 293-A2. As to conditions: co-cultured with 293-A2. From the text: (§1) SSX-2 TCR-transduced PBLs were co-cultured with various tumor cell lines. […] FIGS. 4A and 4B, FIG. 11, and Tables 3 and 4 show additional results of PBLs from human donors that were transduced with the SSX-2 TCR of Example 2 when these PBLs were co-cultured with various tumor cells. PBLs that were untransduced (UT) or transduced with a vector comprising SEQ ID NO: 27 (SSX-2 TCR), SEQ ID NO: 29 (codon-optimized SSX-2 TCR), or SEQ ID NO: 30 (codon-optimized SSX-2 TCR including mouse constant region) were co-cultured with various tumor cell lines. Tables 5 and 6 show the resulting interferon-γ levels (pg/ml) measured with respect to PBL from two different donors.

A further test has as its system SKMEL 23. As to the kind of experiment: IFN-γ release, co-culture with SKMEL 23. As to conditions: co-cultured with SKMEL 23. The text has this: (§2) SSX-2 TCR-transduced PBLs were co-cultured with various tumor cell lines. […] FIGS. 4A and 4B, FIG. 11, and Tables 3 and 4 show additional results of PBLs from human donors that were transduced with the SSX-2 TCR of Example 2 when these PBLs were co-cultured with various tumor cells.

The test system of the next test is 624 mel. As to the kind of experiment: IFN-γ release, co-culture with 624 melanoma. The settings on record: co-cultured with 624 (Melanoma).
Source text: as §1

The next test has as its system 938-A2 mel. As to the kind of experiment: IFN-γ release, co-culture with 938-A2 melanoma. The settings on record: Table 3; co-cultured with 938-A2 (Melanoma).
Source text: as §1

The test system of a further test is 293-A2 SSX2. Kind of test: IFN-γ release, co-culture with 293-A2 SSX2. As to conditions: co-cultured with 293-A2 SSX2.
Source text: as §1

Another test has as its system HEPG2. As to the kind of experiment: IFN-γ release, co-culture with HEPG2. The settings on record: co-cultured with HEPG2.
Source text: as §2

In a further test the test system is Lau 149 mel. Kind of test: IFN-γ release, co-culture with Lau 149 mel. The settings on record: co-cultured with Lau 149 mel. The text has this: PBLs that were untransduced (UT) or transduced with a vector comprising SEQ ID NO: 27 (SSX-2 TCR), SEQ ID NO: 29 (codon-optimized SSX-2 TCR), or SEQ ID NO: 30 (codon-optimized SSX-2 TCR including mouse constant region) were co-cultured with various tumor cell lines. Tables 5 and 6 show the resulting interferon-γ levels (pg/ml) measured with respect to PBL from two different donors.

In another test the test system is COS-A2-SSX-2 cells. Kind of test: Proliferation ([3H]-thymidine) on co-culture with COS-A2-SSX-2 cells. The settings on record: PBL from Donor 1 or Donor 2; FIGS. 6A, 6B. Here is the method:
PBLs from Donor 1 or Donor 2 that were untransduced (UT) or transduced with a vector comprising SEQ ID NO: 27 (SSX-2 TCR), SEQ ID NO: 29 (codon-optimized SSX-2 TCR), or SEQ ID NO: 30 (codon-optimized SSX-2 TCR including mouse constant region) were co-cultured with COS-A2-SSX-2 cells. Proliferation in terms of [^3H]-thymidine incorporation (CPM) was measured and is shown in FIG. 6A (Donor 1) and 6B (Donor 2).

Test [1] relates to SSX2+/HLA-A2+ target cells. As to the kind of experiment: Proliferation ([3H]-thymidine) on co-culture with tumor cells. As to conditions: 1300 mel, 624 mel, 888 mel, SK mel 37 or COS-A2-SSX-2 cells; FIGS. 9A-9E. The text has this: In another experiment, PBLs transduced as described in this example were co-cultured with 1300 mel cells, 624 mel cells, 888 mel cells, SK mel 37 cells, or COS-A2-SSX-2 cells.

Test [2] relates to SSX-2+/HLA-A2+ target cells. Kind of test: Percent lysis of target cells. The settings on record: FIGS. 7A-D and 8A-D, various E:T ratios.
For test [3], the system named is melanoma (624, and 1300) and glioblastoma cell lines (U251). Kind of test: IFN-γ release, co-culture with various tumor cell lines (FIG. 3). From the text:
SSX-2 TCR-transduced PBLs were co-cultured with various tumor cell lines.

B1: SSX2-TCR-WT: HLA-A2 restricted anti-SSX-2 TCR alpha and beta chains encoded by SEQ ID NO: 27, tested as transduced human PBLs (protein)
chain: MSLSSLLKVVTASLWLGPGIAQKITQTQPGMFVQEKEAVTLDCTYDTSDPSYGLFWYKQPSSGEMIFLIYQGSYDQQNATEGRYSLNFQKARKSANLVISASQLGDSAMYFCAMTSGFGNEKLTFGTGTRLTIIPNIQNPDPAVYQLRDSKSSDKSVCLFTDFDSQTNVSQSKDSDVYITDKTVLDMRSMDFKSNSAVAWSNKSDFACANAFNNSIIPEDTFFPSPESSCDVKLVEKSFETDTNLNFQNLSVIGFRILLLKVAGFNLLMTLRLWSSRAKRSGSGATNFSLLKQAGDVEENPGPMGPGLLHWMALCLLGTGHGDAMVIQNPRYQVTQFGKPVTLSCSQTLNHNVMYWYQQKSSQAPKLLFHYYDKDFNNEADTPDNFQSRRPNTSFCFLDIRSPGLGDAAMYLCATSRGQGGQPQHFGDGTRLSILEDLNKVFPPEVAVFEPSEAEISHTQKATLVCLATGFFPDHVELSWWVNGKEVHSGVSTDPQPLKEQPALNDSRYCLSSRLRVSATFWQNPRNHFRCQVQFYGLSENDEWTQDRAKPVTQIVSAEAWGRADCGFTSVSYQQGVLSATILYEILLGKATLYAVLVSALVLMAMVKRKDF
Take B1: the IFN-γ with 293-A2 (Table 3) came to 173 pg/mL; with 293-A2 (Table 4) it was 144 pg/mL; in the test on SKMEL 23 (Table 3), 0 pg/mL; with SKMEL 23 (Table 4), 0 pg/mL; in the test with 624 mel (Table 3) it was 26515 pg/mL; with 624 mel (Table 4), 21730 pg/mL. Moreover, the IFN-γ in the test with 938-A2 mel is 19320 pg/mL; in the test with 293-A2 SSX2 (Table 3) it was 33913 pg/mL; with 293-A2 SSX2 (Table 4), 20595 pg/mL; in the test with HEPG2 (Table 3), 25 pg/mL; with HEPG2 (Table 4), 61 pg/mL. Also, the interferon-γ levels came out at 582 pg/mL in the test with 293-A2 (Table 5 donor), 1520 pg/mL in the test on 293-A2 (Table 6 donor), 285 pg/mL in the test with Lau 149 mel (Table 5 donor) and 125 pg/mL in the test on Lau 149 mel (Table 6 donor). Moreover, the “proliferation ([3H]-thymidine incorporation)” value in the test on COS-A2-SSX-2 cells is listed as “proliferate in response to co-culture with COS-A2-SSX-2 cells”; in test [1] it was “proliferate in response to co-culture with SSX2+/HLA-A2+ target cells”. Besides, in [2], the “lytic activity (percent lysis)” value was “specific lytic activity against SSX-2^+/HLA-A2^+ target cells”. Moreover, the “recognition of tumor cell lines (IFN-γ)” value in [3] is “recognized naturally processed and presented SSX-2 protein in both melanoma (624, and 1300) and glioblastoma cell lines (U251)”.
